Results on one sequence are retold here after patent US20140298547.

What all share (experiment): cell_activity
The test system of data set [1] is ZFP SBS15590 (monomer of eZFN1 and eZFN8) (synthetic construct). The following applies: in planta cut plus chimeric.
For data set [2], the system named is ZFP SBS18473 (monomer of eZFN8) (synthetic construct). The conditions noted are these: as eZFN8 pair with SBS15590; in planta cut plus chimeric, 489/697 plants.
In data set [3] the test system is ZFP SBS8196 (monomer of eZFN1) (synthetic construct). The conditions noted are these: as eZFN1 pair with SBS15590; in planta cut plus chimeric, 524/1125 plants.

On to “ATTTTACAATCCTGTCCCTAGTGAGATGGGCGGGAGTCTTCAATCCTGTCCCTAGTGGATAAACTGCAAAAGGCGGATCA (double strand) [ELP locus eZFN1/eZFN8 binding region]”, for which the activity in data set [1] (as eZFN1 pair with SBS8196, 524/1125 plants) came out at 46.6%; in data set [1] (as eZFN8 pair with SBS18473, 489/697 plants), 70.2%; in data set [2], 70.2%; in data set [3] it was 46.6%.
